US20210309732A1 (ELIXIRON IMMUNOTHERAPEUTICS HONG KONG, published 2021)

Columns and labels:
recombinant human GM-CSF [1] = biological target: T1, recombinant human GM-CSF (human, UniProt P04141 18-144); assay: Gator (pro), Coating Ag
T1 construct: also called rhGM-CSF; CSF2

recombinant human GM-CSF [2] = biological target: T1, recombinant human GM-CSF; assay: Biacore
recombinant human GM-CSF [3] = biological target: T1, recombinant human GM-CSF; assay: SPR Biacore 3000, antibody captured by goat anti-human IgG, rhGM-CSF injected
Description: The kinetic binding analysis of anti-GM-CSF antibodies to recombinant human GM-CSF (rhGM-CSF) was determined by Surface plasmon resonance (SPR) using the Biacore 3000 instrument (GE Healthcare). Goat anti-human IgG (5 μg/mL) (SouthernBiotech) was stabilized in […] acetate buffer, pH 4.5, and immobilized on an EDC/NHS pre-activated carboxymethylated dextran 5 (CMS) sensor chip (GE Healthcare) through amine coupling kit (GE Healthcare). HBS-EP buffer (HBS; 10 […], 0.005% surfactant Tween-20, pH 7.4) (GE Healthcare) was used as running buffer. […] CMS sensor chip coated only with goat anti-human IgG was used as reference chip. rhGM-CSF (Biolegend) was injected over the mAb-coated CMS sensor chip and reference chip at different concentrations. The flow rate was 30 μl/min. […] Injection time and dissociation time were 180 and 600 seconds. Data were fitted to a 1:1 model using the Biacore 3000 evaluation software.

recombinant human GM-CSF [4] = biological target: T1, recombinant human GM-CSF; assay: Biacore; remark: listed apart in the source
rhesus GM-CSF [5] = biological target: T2, rhesus GM-CSF (rhesus, UniProt Q9GL44 18-144); assay: ELISA, rhesus GM-CSF coated on the plate, anti-human kappa light chain-HRP, OD 450 nm
T2 sequence (Q9GL44 entry or part of it limits assumed): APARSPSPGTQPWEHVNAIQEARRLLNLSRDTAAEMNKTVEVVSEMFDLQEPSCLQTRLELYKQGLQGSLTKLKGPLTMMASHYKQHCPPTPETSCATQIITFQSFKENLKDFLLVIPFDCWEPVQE
Description: (§1) Human and mouse GM-CSF have about 56% homology and are species specific. Rhesus and GM-CSF has 96.5% homologous to human GM-CSF (Hutchinson et al, J Med Virol 2001, 65:561-565, Genbank accession number AY007376). […] ELISA was performed as followed. Briefly, GM-CSF proteins were coated on the ELISA absorbing plates, then blocked by 1% BSA in PBS. […] After incubation, the plates were washed three times with TBST and incubated with anti-human kappa light chain conjugated HRP secondary antibodies. Plates were washed three times, TMB peroxidase substrate was added and reactions were stopped by adding 1 N sulfuric acid.

recombinant human GM-CSF [6] = biological target: T1, recombinant human GM-CSF; assay: cell-based or functional assay
recombinant human GM-CSF [7] = biological target: T1, recombinant human GM-CSF; assay: Biacore; remark: listed apart in the source
recombinant human GM-CSF [8] = biological target: T1, recombinant human GM-CSF; assay: ELISA, human GM-CSF coated on the plate, anti-human kappa light chain-HRP, OD 450 nm
Description: as §1

recombinant human GM-CSF [9] = biological target: T1, recombinant human GM-CSF; assay: Gator, Coating Ag
recombinant human GM-CSF [10] = biological target: T1, recombinant human GM-CSF; assay: ELISA on coated rhGM-CSF, UBA relative to 1D2
In short: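 Antibody clones carrying SDR point mutants in VH or VL, each paired with the wild-type chain, were expressed in HEK293 cells. Culture media diluted 1:12000 were bound to plates coated with rhGM-CSF at 1 μg/mL for 1 h at room temperature. Detection used HRP anti-human antibody and Amplex Red fluorescence (Ex530/Em590), with UBA = fluorescence signal/dilution factor.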

recombinant human GM-CSF [11] = biological target: T1, recombinant human GM-CSF; assay: ELISA, GM-CSF coated on the plate, anti-human kappa light chain-HRP, OD 450 nm
Description: as §1

mouse GM-CSF = biological target: T3, mouse GM-CSF (mouse, UniProt P01587 18-141); assay: as above
T3 sequence (looked up): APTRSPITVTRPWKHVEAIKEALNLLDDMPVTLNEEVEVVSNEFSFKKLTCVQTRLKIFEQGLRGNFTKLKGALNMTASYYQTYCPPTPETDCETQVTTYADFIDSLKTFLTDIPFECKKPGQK
Description: as §1

rhesus GM-CSF [12] = biological target: T2, rhesus GM-CSF; assay: as above
Description: as §1

recombinant human GM-CSF [13] = biological target: T1, recombinant human GM-CSF; assay: cell-based or functional assay; remark: listed apart in the source
recombinant human GM-CSF [14] = biological target: T1, recombinant human GM-CSF; assay: Gator, Coating Ab

T1 sequence (P04141 18-144 limits assumed): as the sequence (Q9GL44 entry or part of it limits assumed) above, with G9S, K38E, V43I, S53T, Q67R, Q104E counted along it

B1: antibody 1D2 (antibody, V domains shown)
VH: QVQLVQSGAEVKKPGASVKVSCEASGYTFTDKYLHWVRQAPGQGLEWMAWINPKSGGTFYAQNFKGRVTVTRDTSINTAYLELTSLRLDDTSTYYCARGRDYYDQGAADLWGQGTMVTVSS
VL: DIQLTQSPSSLSASVGDRVTITCRASQGINSVLAWYQQKPGKAPKLLLYAASKLESGVPSRFSGSGSGTDYTLTISSLQPEDFGTYYCQQYYSPVRTFGQGTKVEIKR
notes: also called 1D2-WT; WT
Q: For B1, which Kd (recombinant human GM-CSF [1]) is on record?
A: 0.00157 nM

Q: And the Kd (recombinant human GM-CSF [2])?
A: 0.162 nM

Q: And the Kd (recombinant human GM-CSF [3])?
A: 0.0643 nM

Q: And the koff (recombinant human GM-CSF [3])?
A: 7.48e-05 s⁻¹

Q: And the kon (recombinant human GM-CSF [3])?
A: ~1.16e+06 M⁻¹ s⁻¹

Q: What about the Ka (recombinant human GM-CSF [4]) of the same binder?
A: 1.01e+10 M⁻¹

Q: What about the Kd (recombinant human GM-CSF [4]) of the same binder?
A: 0.099 nM

Q: What about the koff (recombinant human GM-CSF [4]) of the same binder?
A: 0.000173 s⁻¹

Q: What about the kon (recombinant human GM-CSF [4]) of the same binder?
A: 1.75e+06 M⁻¹ s⁻¹

Q: What about the “EC50 (read off the curve)” value (rhesus GM-CSF [5]) of the same binder?
A: ~0.5 nM

Q: What about the “IC50, inhibition of GM-CSF induced TF-1 cell proliferation” value (recombinant human GM-CSF [6]) of the same binder?
A: 0.0631 nM

Q: What about the “IC50, inhibition of rhGM-CSF induced CCL17 secretion from PBMCs” value (recombinant human GM-CSF [6]) of the same binder?
A: 0.0714 nM

Q: And the “IC50, inhibition of rhGM-CSF induced CCL17 secretion in human PBMCs” value (recombinant human GM-CSF [6])?
A: 0.159 nM

Q: And the “IC50, inhibition of rhGM-CSF induced IL-8 secretion in U937 cells” value (recombinant human GM-CSF [6])?
A: 0.0594 nM

Q: What about the Kd (recombinant human GM-CSF [7]) of the same binder?
A: 0.099 nM

Q: And the koff (recombinant human GM-CSF [7])?
A: 0.000173 s⁻¹

Q: What about the kon (recombinant human GM-CSF [7]) of the same binder?
A: 1.75e+06 M⁻¹ s⁻¹

Q: What about the “EC50 (read off the curve)” value (recombinant human GM-CSF [8]) of the same binder?
A: ~0.4 nM

Q: What about the Kd (recombinant human GM-CSF [9]) of the same binder?
A: 0.0176 nM

Q: What about the “binding affinity % of 1D2” value (recombinant human GM-CSF [10]) of the same binder?
A: 100%

Q: What about the “EC50 (read off the curve)” value (recombinant human GM-CSF [11]) of the same binder?
A: ~0.08 nM

Q: Does B1 bind (mouse GM-CSF)?
A: no binding (tested: about 4e-8 M)

Q: What about the “EC50 (read off the curve)” value (rhesus GM-CSF [12]) of the same binder?
A: ~0.06 nM

Q: And the “IC50 (M), inhibition of GM-CSF induced TF-1 cell proliferation (FIG. 5A)” value (recombinant human GM-CSF [13])?
A: 1.71e-10 M

Q: And the “IC50 (M), inhibition of GM-CSF induced TF-1 cell proliferation (FIG. 5B)” value (recombinant human GM-CSF [13])?
A: 2.28e-10 M

Q: What about the Kd (recombinant human GM-CSF [14]) of the same binder?
A: 0.177 nM
